In this test the target is calf thymus RNA Polymerase II (12-subunit enzyme, Form II; core of Form I) (bovine (calf thymus)). The test can be described thus: quantification of seven Coomassie stained SDS-PAGE gel bands of purified or reconstituted FI RNAPII.

In the case of “native calf thymus Gdown1 (41 kD polypeptide of Form I RNAPII) (from UniProt Q17QE3 1-370)”, the average molar ratio of Gdown1 to Rpb5 in FI RNAPII amounted to 1 molar ratio.

The record behind these values is patent US20070225241A1.
